In test [1] the target is human C5L2 (human) (UniProt Q9P296). Briefly: flow cytometry, binding/uptake of FLUOS-ASP on HEK 293 cells transiently transfected with C5L2, 30 min at 37 C. (A flow cytometer gives signals particle by particle.)
Test [2] has the same target. Put plainly: competition with 50 pM 125I-C3a on C5L2-transfected RBL cells, 4 C.
Test [3] has the same target. Put plainly: competition with 50 pM 125I-C5a on C5L2-transfected RBL cells, 4 C.

Chain of recombinant C3a des-Arg^77, P01024 672-747 (ligand; other documents disagree on this pair) (P01024 672-747 limits assumed): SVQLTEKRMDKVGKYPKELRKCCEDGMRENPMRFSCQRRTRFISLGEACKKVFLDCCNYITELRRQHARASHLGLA
Chain of recombinant His6-tagged C3a, P01024 672-748 (ligand; other documents disagree on this pair) (P01024 672-748 limits assumed): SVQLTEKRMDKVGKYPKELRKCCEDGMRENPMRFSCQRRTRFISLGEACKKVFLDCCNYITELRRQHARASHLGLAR
Chain of human C5L2 (human) (Q9P296 whole entry): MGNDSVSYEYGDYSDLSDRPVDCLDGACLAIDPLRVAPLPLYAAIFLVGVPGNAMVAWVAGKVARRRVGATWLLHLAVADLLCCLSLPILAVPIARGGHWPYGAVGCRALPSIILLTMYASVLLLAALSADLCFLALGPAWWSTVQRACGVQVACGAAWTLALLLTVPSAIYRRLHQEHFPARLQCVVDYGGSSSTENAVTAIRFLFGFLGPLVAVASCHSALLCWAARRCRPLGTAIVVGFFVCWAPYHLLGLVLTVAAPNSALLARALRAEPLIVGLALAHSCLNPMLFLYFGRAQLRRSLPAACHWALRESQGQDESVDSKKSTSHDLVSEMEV

In general, EC50 refers to the concentration needed to bring the measured effect to its halfway point. Turning to “plasma ASP (C3a des-Arg^77), purified from human plasma, P01024 672-747 (ligand; FLUOS (fluorescein) label in the flow cytometry assays, ^125I label in one assay; labelled residues not stated; other documents disagree on this pair)”, in the test with human C5L2 (human) [1], the EC50 worked out at 3 nM. This lies in the single-digit nanomolar range.
Usually IC50 stands for the concentration at which inhibition is half-maximal. Turning to “recombinant C3a des-Arg^77, P01024 672-747 (ligand; other documents disagree on this pair)”, in the test with human C5L2 (human) [2], the IC50 amounted to 526 nM and the pD2 was 6.24 -log IC50. In the test with human C5L2 (human) [3], the IC50 amounted to 180000 nM and the pD2 is 4.73 -log IC50.
Taken in the same sequence, the figures for “recombinant His6-tagged C3a, P01024 672-748 (ligand; other documents disagree on this pair)” were 167 nM, 6.78 -log IC50, 230000 nM and 4.64 -log IC50.

For the origin of these results see US20060121462A1, “Receptor and screening methods” (priority 2003, published 2006).
